Measured values reported in patent US20030096355A1 (published 2003).

Columns and labels:
[1] = target: T1, murine TNFα (amino acids 82-233, Genbank accession no. CAA68530) (murine, UniProt P06804 82-233); experiment: SPR, Biacore 2000, 25° C; ymkz5-receptor immobilized on CM5 chip, ligand injected
T1 construct: range 82-233; Expressed in E. coli
T1 sequence (looked up): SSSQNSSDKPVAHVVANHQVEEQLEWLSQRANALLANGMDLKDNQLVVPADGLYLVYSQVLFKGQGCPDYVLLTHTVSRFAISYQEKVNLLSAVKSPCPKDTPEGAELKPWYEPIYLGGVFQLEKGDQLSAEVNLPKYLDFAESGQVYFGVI
Procedure: (§1) Binding studies were performed to determine if various TNF ligand family members are ligands for the ymkz5-receptor. The only TNF ligand which bound to the ymkz5-receptor was murine TRAIL. The binding studies, based on surface plasmon resonance, were carried out with the automated, high throughput Biacore 2000 system at 25° C. according to the manufacturer's instructions (Biacore, Uppsula, Sweden) as follows:
(§2) The receptor was immobilized on a CM5 research grade amine coupling chip (Biacore) by placing 40 μg/ml of recombinant ymkz5-receptor diluted in HEPES buffered saline (HBS-P; Biacore) at pH 4.5 on the chip. The ligands were diluted in HSP-B buffer containing 10 μg/ml BSA and 4 mg/ml dextran to block nonspecific binding sites. The ligand samples were injected over the receptors at concentrations ranging from 2 nM to 100 nM. The chips were regenerated between ligand injections by washing 2 times for 3 minutes in 25 mM CAPS, 1 M NaCl pH 10.5.
(§3) The TNF ligands tested were: human flag TRAIL (amino acids 95-281, Genbank accession no. AAC50332), murine flag TRAIL (amino acids 99-291, Genbank accession no. NP 033451), murine Fc TRAIL, human OPGL ligand (amino acids 159-318), murine OPGL ligand (amino acids 159-316), human TNFα (amino acids 82-233, Genbank accession no. CAA26669), and murine TNFα (amino acids 82-233, Genbank accession no. CAA68530). The extracellular and […] portions of the ligands were recombinantly expressed in E.coli. Specifically, the denoted amino acids for each ligand indicate the portion of the ligand expressed recombinantly. Additionally, commercially available human Fas ligand (Alexis Biochemicals, San Diego, Calif.) was also tested.. Human DR5Fc, a known TRAIL receptor, was used as a control. Results of the assay were determined by detecting the change in mass on the chip as measured by changes in […] on the chip as indicated as resonance units.

[2] = target: T2, human Fas ligand (Alexis Biochemicals) (human, UniProt P48023 103-281, limits assumed); experiment: as above
T2 construct: Bought; construct not described
T2 sequence (looked up): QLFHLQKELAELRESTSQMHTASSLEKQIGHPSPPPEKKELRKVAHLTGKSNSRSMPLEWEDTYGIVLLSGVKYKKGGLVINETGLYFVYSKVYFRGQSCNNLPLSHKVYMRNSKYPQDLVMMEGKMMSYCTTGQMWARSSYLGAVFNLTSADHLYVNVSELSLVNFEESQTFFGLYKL
Procedure: as §1, §2, §3

[3] = target: T3, human flag TRAIL (amino acids 95-281, Genbank accession no. AAC50332) (human, UniProt P50591 95-281); experiment: as above
T3 construct: range 95-281; Expressed in E. coli; not shown: flag tag
Procedure: as §1, §2, §3

[4] = target: T4, human OPGL ligand (amino acids 159-318) (human, UniProt O14788 159-317); experiment: as above
T4 construct: range 159-318; Expressed in E. coli; The printed range may run past the end of the UniProt entry
T4 sequence (looked up): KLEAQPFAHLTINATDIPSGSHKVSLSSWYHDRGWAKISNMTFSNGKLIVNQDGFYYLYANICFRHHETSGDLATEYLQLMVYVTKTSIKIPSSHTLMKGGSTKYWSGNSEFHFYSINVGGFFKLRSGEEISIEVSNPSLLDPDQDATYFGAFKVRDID
Procedure: as §1, §2, §3

[5] = target: T5, murine OPGL ligand (amino acids 159-316) (murine, UniProt O35235 159-316); experiment: as above
T5 construct: range 159-316; Expressed in E. coli
T5 sequence (looked up): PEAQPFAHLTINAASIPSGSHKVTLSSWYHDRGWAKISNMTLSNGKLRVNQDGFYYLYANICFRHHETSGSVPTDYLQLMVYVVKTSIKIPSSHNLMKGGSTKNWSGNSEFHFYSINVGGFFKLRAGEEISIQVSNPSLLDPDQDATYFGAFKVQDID
Procedure: as §1, §2, §3

[6] = target: T6, human TNFα (amino acids 82-233, Genbank accession no. CAA26669) (human, UniProt P01375 82-233); experiment: as above
T6 construct: range 82-233; Expressed in E. coli
Procedure: as §1, §2, §3

active murine TRAIL = target: T7, active murine TRAIL (murine, UniProt P50592 99-291); experiment: SPR, Biacore 2000, 25° C; ymkz5-receptor amine-coupled on CM5 chip, ligand injected at 2 nM to 100 nM; receptor on the chip; active (bioactive) murine TRAIL as ligand
T7 construct: The result is told only for 'active murine TRAIL which was bioactive in cell culture assays'; The construct (flag-tagged 99-291 or Fc fusion) is not tied to the KD; also called murine flag TRAIL; murine Fc TRAIL
T7 sequence (looked up): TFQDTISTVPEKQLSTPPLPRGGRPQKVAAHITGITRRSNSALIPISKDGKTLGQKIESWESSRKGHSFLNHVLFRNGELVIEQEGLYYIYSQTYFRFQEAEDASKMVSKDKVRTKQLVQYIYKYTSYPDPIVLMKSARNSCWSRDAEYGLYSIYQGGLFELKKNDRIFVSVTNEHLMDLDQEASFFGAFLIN
Procedure: as §1
The receptor was immobilized on a CM5 research grade amine coupling chip (Biacore) by placing 40 μg/ml of recombinant ymkz5-receptor diluted in HEPES buffered saline (HBS-P; Biacore) at pH 4.5 on the chip. The ligands were diluted in HSP-B buffer containing 10 μg/ml BSA and 4 mg/ml dextran to block nonspecific binding sites. […]
The TNF ligands tested were: human flag TRAIL (amino acids 95-281, Genbank accession no. AAC50332), murine flag TRAIL (amino acids 99-291, Genbank accession no. NP 033451), murine Fc TRAIL, human OPGL ligand (amino acids 159-318), murine OPGL ligand (amino acids 159-316), human TNFα (amino acids 82-233, Genbank accession no. CAA26669), and murine TNFα (amino acids 82-233, Genbank accession no. CAA68530). […] Results of the assay were determined by detecting the change in mass on the chip as measured by changes in […] on the chip as indicated as resonance units.

T3 sequence (P50591 95-281 limits assumed): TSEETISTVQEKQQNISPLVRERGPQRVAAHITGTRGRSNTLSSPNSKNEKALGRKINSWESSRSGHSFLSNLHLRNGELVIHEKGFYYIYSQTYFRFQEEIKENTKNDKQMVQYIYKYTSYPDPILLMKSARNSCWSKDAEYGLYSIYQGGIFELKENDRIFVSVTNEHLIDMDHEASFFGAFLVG
T6 sequence (P01375 82-233 limits assumed): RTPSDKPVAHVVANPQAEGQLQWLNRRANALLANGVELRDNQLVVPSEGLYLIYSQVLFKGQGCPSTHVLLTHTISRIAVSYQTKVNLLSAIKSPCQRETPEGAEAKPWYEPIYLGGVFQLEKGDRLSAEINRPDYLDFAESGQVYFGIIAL

B1: recombinant ymkz5-receptor (receptor)
chain: MPESYSFNCPDGEYQSNDVCCKTCPSGTFVKAPCKIPHTQGQCEKCHPGTFTGKDNGLHDCELCSTCDKDQNMVADCSATSDRKCECQIGLYYYDPKFPESCRPCTKCPQGIPVLQECNSTANTVC
**Q.** What does the source list for B1?
**A.** binding result [1]: no binding; binding result [2]: no binding; binding result [3]: no binding; binding result [4]: no binding; binding result [5]: no binding; binding result [6]: no binding; Kd (active murine TRAIL): 20.8 nM
